We go through 1 protein from paper doi:10.1101/2025.08.26.672026 (bioRxiv, 2025).

This data set concerns the molecule itself. Description: negative stain EM.

B1: RPS2^ΔN26 (domain or fragment, Arabidopsis thaliana, UniProt Q42484 27-909, looked up)
chain: HKTDLRQAITDLETAIGDLKAIRDDLTLRIQQDGLEGRSCSNRAREWLSAVQVTETKTALLLVRFRRREQRTRMRRRYLSCFGCADYKLCKKVSAILKSIGELRERSEAIKTDGGSIQVTCREIPIKSVVGNTTMMEQVLEFLSEEEERGIIGVYGPGGVGKTTLMQSINNELITKGHQYDVLIWVQMSREFGECTIQQAVGARLGLSWDEKETGENRALKIYRALRQKRFLLLLDDVWEEIDLEKTGVPRPDRENKCKVMFTTRSIALCNNMGAEYKLRVEFLEKKHAWELFCSKVWRKDLLESSSIRRLAEIIVSKCGGLPLALITLGGAMAHRETEEEWIHASEVLTRFPAEMKGMNYVFALLKFSYDNLESDLLRSCFLYCALFPEEHSIEIEQLVEYWVGEGFLTSSHGVNTIYKGYFLIGDLKAACLLETGDEKTQVKMHNVVRSFALWMASEQGTYKELILVEPSMGHTEAPKAENWRQALVISLLDNRIQTLPEKLICPKLTTLMLQQNSSLKKIPTGFFMHMPVLRVLDLSFTSITEIPLSIKYLVELYHLSMSGTKISVLPQELGNLRKLKHLDLQRTQFLQTIPRDAICWLSKLEVLNLYYSYAGWELQSFGEDEAEELGFADLEYLENLTTLGITVLSLETLKTLFEFGALHKHIQHLHVEECNELLYFNLPSLTNHGRNLRRLSIKSCHDLEYLVTPADFENDWLPSLEVLTLHSLHNLTRVWGNSVSQDCLRNIRCINISHCNKLKNVSWVQKLPKLEVIELFDCREIEELISEHESPSVEDPTLFPSLKTLRTRDLPELNSILPSRFSFQKVETLVITNCPRVKKLPFQERRTQMNLPTVYCEEKWWKALEKDQPNEELCYLPRFVPN
For the protein B1, the “stoichiometry N” value is 8.

As a reminder, the stoichiometry N is the number of molecules, sites or subunits per partner or assembly.
